Reference: article PMC11630628 (Molecular Plant, 2024)

How the values were obtained:
[1] = tested on: PROSCOOP12 transcript; assay: qPCR expression of PROSCOOP12 in detached leaves; type: cell-based, Arabidopsis thaliana
Text: (§1) Total RNA was isolated from Arabidopsis leaves with the RNAiso Plus (TAKARA) and reverse transcribed using the PrimeScript RT reagent Kit (TAKARA). qPCR reactions were implemented in an Applied Biosystems 7500 Real-Time PCR system with the SYBR Premix Ex Taq II (TAKARA). ACTIN was used as the reference gene for qPCR analyses. The primers used for qPCR are listed in Supplemental Table 2.

[2] = tested on: Arabidopsis mik2 mutant detached rosette leaves; assay: Detached leaf senescence assay, mik2 mutants; type: in vivo, Arabidopsis thaliana; conditions: SCOOP10 1 μM (Figures 3A–3C)
Method: (§2) A. thaliana ecotype Columbia-0 and mutants used in this study include mik2-1 (SALK_06269), mik2-2 (CS419958), proscoop10-1 (SALK_080439), and proscoop10-2 (SALK_027949), which were obtained from ABRC. The proscoop12 CRISPR-Cas9-generated mutants were kindly provided by Dr. Elia Stahi at the University of Lausanne, Switzerland ([Stahl et al., 2022]). Imbibed seeds were incubated at 4°C in a refrigerator for 2 days before sowing on the soil mix (3 parts commercial soil: 1 parts vermiculite) and grown under the long-day condition (16 h light/8 h dark) in a growth chamber with 150 μmol m^−2 s^−1 light intensity. For the senescence phenotyping of detached leaves, the fifth and sixth rosette leaves of 25-day-old plants were removed and placed in Petri dishes with the adaxial side facing up. The Petri dishes were sealed with parafilm to prevent water loss, and the leaves were incubated with deionized water. The application of exogenous peptides followed the previously established method ([Zhang et al., 2022a], [2022b]). […] All data including plant phenotypes and gene expression presented in this study were analyzed with GraphPad Prism 9, and at least three biological replicates were included in each experiment. Chl content, photochemical efficiency of PSII (Fv/Fm ratio), and ion leakage were determined as previously described ([Zhang et al., 2020], [2022b]; [Guo et al., 2022]).

[3] = tested on: purified His-tagged MIK2 ectodomain; assay: Pull-down assay with biotinylated peptides; type: binding, Arabidopsis thaliana; conditions: biotinylated peptide, streptavidin magnetic beads, 20 mM Tris-HCl pH 7.3, 150 mM NaCl, 0.1% NP-40, anti-His Western blot, repeated three times, conclusion also rests on MST
Method: Subsequently, 30 μL streptavidin magnetic beads (New England Biolabs) were added to each sample and incubated for 1 h at 4°C, followed by washing 5–6 times with 1.0 mL of interactive buffer. The proteins bound to the beads were then eluted using interactive buffer containing 5× SDS loading buffer, and western blot analysis was conducted as previously described ([Lan et al., 2023]). In the competitive binding assay, 50 nM purified MIK2 protein featuring a His-tag at its C-terminal was initially mixed with 250 nM of biotinylated SCOOP10. […] After thorough mixing, the beads underwent 5–6 washes to meticulously remove any residual proteins, and then the preparations were subjected to detailed analysis via western blotting to probe the interactions.

[4] = tested on: Arabidopsis WT intact rosette leaves; assay: Exogenous peptide application on intact rosette leaves; type: in vivo, Arabidopsis thaliana; conditions: SCOOP10 1 μM sprayed, vs mock
Method: A. thaliana ecotype Columbia-0 and mutants used in this study include mik2-1 (SALK_06269), mik2-2 (CS419958), proscoop10-1 (SALK_080439), and proscoop10-2 (SALK_027949), which were obtained from ABRC. The proscoop12 CRISPR-Cas9-generated mutants were kindly provided by Dr. Elia Stahi at the University of Lausanne, Switzerland ([Stahl et al., 2022]). Imbibed seeds were incubated at 4°C in a refrigerator for 2 days before sowing on the soil mix (3 parts commercial soil: 1 parts vermiculite) and grown under the long-day condition (16 h light/8 h dark) in a growth chamber with 150 μmol m^−2 s^−1 light intensity. For the senescence phenotyping of detached leaves, the fifth and sixth rosette leaves of 25-day-old plants were removed and placed in Petri dishes with the adaxial side facing up. The Petri dishes were sealed with parafilm to prevent water loss, and the leaves were incubated with deionized water. The application of exogenous peptides followed the previously established method ([Zhang et al., 2022a], [2022b]). For dark-induced leaf senescence assays, detached rosette leaves were incubated in deionized water placed in the dark condition for 6 days. At least three biological replicates were included for each assay. For senescence phenotype analysis under normal growth conditions, homozygous plants were grown alongside Col-0. All data including plant phenotypes and gene expression presented in this study were analyzed with GraphPad Prism 9, and at least three biological replicates were included in each experiment. Chl content, photochemical efficiency of PSII (Fv/Fm ratio), and ion leakage were determined as previously described ([Zhang et al., 2020], [2022b]; [Guo et al., 2022]).
Figure S4. […]
after 1 to 10 days of treatments. Three independent experiments were performed with 8 leaves measured for each […]
determined by one-way ANOVA (α = 0.05) followed by Bonferroni post-hoc test for multiple comparisons (*P ≤ 0.05, ***P […]
indicate statistically significant differences compared to WT, as determined by one-way ANOVA analysis (α = 0.05) […]

[5] = tested on: MIK2-GFP (pMIK2::MIK2-GFP/mik2-1 plants); assay: MIK2-phosphorylation assay in detached leaves; type: cell-based, Arabidopsis thaliana; conditions: 5 μM peptide, 0, 1, 2, 4 h, pMIK2::MIK2-GFP/mik2-1 leaves; GFP IP, anti-pThr blot; vs mock
Method: Transgenic A. thaliana T3 homozygous plants expressing MIK2-GFP under the control of its native promoter were grown under long-day conditions (16 h light/8 h dark) for 4 weeks before sampling. […] Leaves were subjected to vacuum infiltration at room temperature for 30 min. Following treatment, the leaves were rapidly frozen in liquid nitrogen and ground into a fine powder. […] The samples were incubated for 30 min at 4°C with gentle agitation, followed by centrifugation at 14 000 rpm for 20 min at 4°C to remove debris. The supernatant was then incubated with anti-GFP agarose beads (Abcam, AE079) overnight at 4°C for immunoprecipitation (IP). […] The 30-μL eluted proteins were resolved on 7.5% SDS-PAGE gels and transferred onto polyvinylidene fluoride membranes. […] Abcam, AB6556), goat anti-rabbit immunoglobulin G (IgG) (H + L)-horseradish peroxidase (HRP) antibody (1:4000; Abcam, AB6721) and its phosphorylation status using anti-pThr antibodies (1:750, Cell Signaling, 9386), goat anti-mouse IgG (H + L)-HRP antibodies (1:2000; Abcam, AB6789), respectively.

[6] = tested on: bak1 mutants; design: method as in Hou et al., 2021b; conditions: ref Hou et al., 2021b; cited from earlier work
[7] = tested on: bak1-5 serk4 double mutant; design: method as in Hou et al., 2021b; conditions: ref Hou et al., 2021b; cited from earlier work
[8] = tested on: PROSCOOP10 transcript; assay: qPCR expression of PROSCOOP10 in detached leaves; type: cell-based, Arabidopsis thaliana
Text: as §1

[9] = tested on: Arabidopsis WT (Col-0) detached rosette leaves; assay: Detached leaf senescence assay, WT; type: in vivo, Arabidopsis thaliana
Method: as §2

B1: SERINE-RICH ENDOGENOUS PEPTIDE 10 (peptide)
peptide: ALPYHHELFLGRKRMNYYKPNSAIGTPSSTSDHAPGSNGRKLMSIYRPNGDIFTGPSGSGHGGGRTPAP
notes: processed from PROSCOOP10; synthesized by GenScript
[1]; 1 μM peptide, no pretreatment, detached leaves, vs mock, qPCR
  PROSCOOP12 expression: induce the expression of PROSCOOP12 within 1 h
[1]; pretreated with SCOOP10 24 h, treated with SCOOP10 for 1, 5 and 10 h
  PROSCOOP12 expression, SCOOP10 pretreatment then SCOOP10: even stronger
[2]
  senescence induction, WT compared with mik2 mutants: More profound senescence was induced by SCOOP10 treatments in WT than in mik2 mutant plants
[3]
  interaction with MIK2 ectodomain: SCOOP10 interacts with MIK2
[4]; 1 to 10 days, WT, sixth rosette leaves
  Chl content, intact rosette leaves: reduced Chl content
[4]; 10 days, 4-week-old WT, three experiments, 8 leaves each
  leaf senescence, intact rosette leaves: significantly accelerated leaf senescence
[4]; WT
  Fv/Fm ratio, intact rosette leaves: reduced Chl content and Fv/Fm ratio
[5]
  MIK2 kinase phosphorylation: MIK2 phosphorylation decreased drastically over time compared to the mock controls
[6]
  sensitivity of bak1 mutants (root growth inhibition, published): sensitive to SCOOP10 application
[7]
  root growth inhibition in bak1-5 serk4 (published): milder phenotype in response to SCOOP10 treatment
[8]; 1 μM peptide, detached leaves, vs mock, qPCR
  PROSCOOP10 expression: reduced expression
[8]; reduction in SCOOP10/SCOOP10-pretreated leaves vs mock, 1 μM
  PROSCOOP10 expression, SCOOP10/SCOOP10-pretreated leaves: more pronounced
[9]; SCOOP10 alone, Figures 5D and 5E, n = 8 leaves per replicate
  senescence phenotype, SCOOP10 alone (sequential assay control): significant senescence phenotypes
[9]; exogenous peptide, SCOOP10 1 μM for 5 days (Figure 2A, 2B; Supplemental Figure 3)
  leaf senescence phenotype, detached leaves: premature senescence phenotype in detached leaves
